Laboratory results published in patent EP1012281B1.

What was measured:
[1] = molecular target: human lymph node derived calcium activated potassium channel polypeptide hKCa4, transiently expresse (human); experiment: cell-based or functional assay
[2] = molecular target: cloned hKCa4 (SEQ ID NO:3) (human); experiment: cell-based or functional assay

“apamin (from UniProt P01500 28-45) (peptide)” showed a Kd for block of KCa current, whole cell patch clamp [1] of over 1000 nM.

“iberiotoxin (from UniProt P24663 1-37) (peptide)” was tested, and the Kd for block of KCa current, whole cell patch clamp [1] was over 1000 nM.

“kaliotoxin (from UniProt P24662 1-38) (peptide)” gave a Kd for block of KCa current, whole cell patch clamp [1] of over 1000 nM.

Work on “scyllatoxin (from UniProt P16341 1-31) (peptide)” yielded a Kd for block of KCa current, whole cell patch clamp [1] of over 1000 nM.

B1: charybdotoxin, P13487 23-59 (peptide)
peptide: QFTNVSCTTSKECWSVCQRLHNTSRGKCMNKKCRCYS
modifications: not checked
B1 gave an IC50 as peptide blocker of the channel [2] of 5 to 10 nM.
